Reference: patent US20170081417A1 (Kyowa Kirin, published 2017)
No end group written: not given here.

T1: human OX40 (CD134), full length, expressed on cells (activated human T cells); EL4-OX40 and CHO-OX40 … (human, UniProt P43489 29-277)
T1 sequence: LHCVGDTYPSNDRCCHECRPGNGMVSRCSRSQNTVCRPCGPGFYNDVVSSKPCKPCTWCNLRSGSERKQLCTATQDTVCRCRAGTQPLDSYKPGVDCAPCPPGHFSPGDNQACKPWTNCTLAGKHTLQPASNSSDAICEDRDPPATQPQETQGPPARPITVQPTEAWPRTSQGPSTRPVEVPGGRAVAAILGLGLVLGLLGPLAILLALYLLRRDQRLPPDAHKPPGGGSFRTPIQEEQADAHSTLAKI

T2: human OX40 peptide 112B (human, also: conjugated to KLH via maleimide linker)
T2 peptide: RAGTQPLDSYKPGVDC

T3: human OX40 peptide 112C (human, also: conjugated to KLH via maleimide linker)
T3 peptide: LAGKHTLQPASNSSDAIC

T4: human OX40 peptide 112A (human, also: conjugated to KLH via maleimide linker)
T4 peptide: RPAGPGFYNDVVSSKPC


How the values were obtained:
[1] = molecular target: T1, human OX40 (CD134), full length, …; test: cell-based or functional assay
[2] = molecular target: T5, human OX40 extracellular domain fused to the Fc portion of human IgG1 (hOX40:hFc) (human); test: ELISA, OX40L-FLAG binding to coated hOX40:hFc, anti-FLAG-HRP
T5 construct: Made in Tn5 insect cells; also called OX40-hIgG1; human OX40:hIgG1 fusion protein
Protocol: (§1) The ability of 112F32, 112V8, 112Y131, 112Y55, and 112Z5 to block soluble hOX40L binding to coated hOX40:hFc fusion protein was tested using an ELISA protocol (FIG. 5A, Table 3). The plates were coated with hOX40:hFc and after blocking non-specific sites the anti-OX40 antibodies were allowed to bind. Without washing OX40L-FLAG was added to the wells. Bound ligand was detected with anti-FLAG-HRP secondary antibody. Percent inhibition was determined using the following formula (100−(OD sample/OD maximum OX40L binding))*100. 112V8, 112Y55, and 112Y131 prevented 85% of the binding of soluble OX40L to hOX40:hFc. 112F32 prevented approximately 70% of the binding of soluble hOX40L to hOX40:hFc and 112Z5 blocked 67% of the maximal binding.

human OX40 peptide 112B = molecular target: T2, human OX40 peptide 112B; test: ELISA on coated KLH-conjugated peptide
Protocol: (§2) Antibody titers, specificity, and production by hybridomas were determined by ELISA. In brief, 96 well flat bottom plates were coated with 50 μl of hOX40:hFc at 5 μg/ml in carbonate buffer (pH 9.4) overnight at 4° C. or at 37° C. for one hour. After washing twice with PBS/0.1% Tween 20, plates were blocked with PBS/1% BSA/0.1% Tween20 at 37° C. for one hour. The serum, supernatant, or purified antibody was diluted in blocking buffer, added to the wells, and the plates were incubated for one hour at 37° C. The plates were washed four times with PBS/0.1% Tween 20 and the peroxidase conjugated sheep anti-human kappa detection antibody (The Binding Site, Birmigham, UK) was added at a dilution of 1:2000. Following one hour incubation at 37° C., the plates were washed and the TMB (Sigma) substrate was added and incubated at room temperature for ten to thirty minutes. The reaction was stopped with H₂SO₄ (LabChem) and the optical density was measured at 450 nm by a microplate reader.
(§3) The peptides were generated by A & A Lab, LLC and conjugated to keyhole limpet hemocyanin (“KLH”) with a maleimide linker following the manufacturer's instructions (Pierce). The peptides were coated at 10 μg/ml in carbonate buffer to 96 well Maxisorp ELISA plates (Nunc) at 4° C. overnight. The plate was washed with PBS/0.1% Tween 20 and then blocked with Casein buffer (Pierce) for three hours at room temperature. Candidate antibodies were added at 10 μg/ml diluted in 10% Casein in PBS/0.1% Tween 20. The remainder of the ELISA was performed as described for the OX40 specific antibody detection ELISA.

human OX40 peptide 112C = molecular target: T3, human OX40 peptide 112C; test: ELISA on coated KLH-conjugated peptide
Protocol: as §2, §3

human OX40 peptide 112A = molecular target: T4, human OX40 peptide 112A; test: ELISA on coated KLH-conjugated peptide
Protocol: as §2, §3

[3] = molecular target: T1, human OX40 (CD134), full length, …; test: flow cytometry titration on activated human T cells, anti-human IgG-PE
Protocol: (§4) Following twenty minute incubation on ice, the cells were washed once and fixed ten minutes with 1% paraformaldehyde. After a final wash the cells were resuspended in staining buffer and the samples were acquired using FACScan or FACS Calibur flow cytometers (Becton Dickinson Biosciences, Palo Alto, Calif.), and the data were analyzed using Cellquest (Becton Dickinson Biosciences) or Flow Jo (TreeStar, Inc., San Carlos, Calif.) software. The activated T cells were also stained with mouse anti-human OX40 antibody L106 (Becton Dickinson), which was directly conjugated to phycoerythrin or whose binding was detected with anti-mouse IgG-PE (Southern Biotechnology Associates.) OX40L Blocking Assays: To determine if the anti-human OX40 antibodies could block OX40L binding to soluble OX40 both ELISA and flow cytometric protocols were used. In the ELISA 96 well Nunc flat bottom plates were coated with recombinant soluble hOX40:hFc at 2 μg/ml in carbonate buffer (pH9.4) for one hour at 37° C. The plates were washed with PBS/0.1% Tween 20 and Superblock (Pierce) was added to the wells to block non-specific binding. The test antibodies were diluted to 1 μg/ml in PBS/Tween and added to the plates. After one hour incubation at 37° C., FLAG tagged recombinant soluble human OX40L (Alexis Biochemicals, San Diego, Calif.) was added to the appropriate wells without washing out the anti-OX40 antibodies. Following one hour incubation, the plates were washed and an anti-FLAG-peroxidase conjugated antibody (Sigma) was added to the wells for one hour at 37° C. The TMB substrate was added, after ten minutes the reaction was stopped with H₂SO₄, and the results were read at 450 nm using a microplate reader. In the flow cytometric assay, human CD4+ T cells were purified and activated with PHA+IL2 for two days. The cells were washed and resuspended in staining buffer and then incubated with increasing amounts of human anti-human OX40 antibodies for twenty minutes on ice, from 0.005-50 μg/ml. Soluble recombinant OX40L-FLAG was then added to the cells. The cells were washed and incubated with anti-FLAG conjugated to PE (Sigma). After another wash, the cells were fixed with 1% paraformaldehyde and analyzed on a FACScan or FACScalibur.

[4] = molecular target: T1, human OX40 (CD134), full length, …; test: flow cytometry, blocking of OX40L-FLAG binding to activated human T cells; footnote: not inhibitory at 50 µg/ml
Description: The activated T cells were also stained with mouse anti-human OX40 antibody L106 (Becton Dickinson), which was directly conjugated to phycoerythrin or whose binding was detected with anti-mouse IgG-PE (Southern Biotechnology Associates.) OX40L Blocking Assays: To determine if the anti-human OX40 antibodies could block OX40L binding to soluble OX40 both ELISA and flow cytometric protocols were used. In the ELISA 96 well Nunc flat bottom plates were coated with recombinant soluble hOX40:hFc at 2 μg/ml in carbonate buffer (pH9.4) for one hour at 37° C. The plates were washed with PBS/0.1% Tween 20 and Superblock (Pierce) was added to the wells to block non-specific binding. The test antibodies were diluted to 1 μg/ml in PBS/Tween and added to the plates. […] The TMB substrate was added, after ten minutes the reaction was stopped with H₂SO₄, and the results were read at 450 nm using a microplate reader. […] After another wash, the cells were fixed with 1% paraformaldehyde and analyzed on a FACScan or FACScalibur.
Slightly different results were obtained when a flow cytometric based assay was used to monitor blockade of soluble OX40L binding to activated human T cells that express OX40 (FIG. 5B). […] Binding of OX40L was detected with anti-FLAG-PE antibody. Percent inhibition was determined using the same formula, i.e., (100−(sample/maximum binding))*100.

[5] = molecular target: T5, human OX40 extracellular domain fused …; test: ELISA, blocking of OX40L-FLAG binding to coated hOX40:hFc
Protocol: as §1

[6] = molecular target: T1, human OX40 (CD134), full length, …; test: flow cytometry, blocking of OX40L-FLAG binding to activated human T cells
Description: as §4, with “The” for “Following twenty minute incubation on ice, the cells were washed once and fixed ten minutes with 1% paraformaldehyde. After a final wash the cells were resuspended in staining buffer and the samples were acquired using FACScan or FACS Calibur flow cytometers (Becton Dickinson Biosciences, Palo Alto, Calif.), and the data were analyzed using Cellquest (Becton Dickinson Biosciences) or Flow Jo (TreeStar, Inc., San Carlos, Calif.) software. The”
Slightly different results were obtained when a flow cytometric based assay was used to monitor blockade of soluble OX40L binding to activated human T cells that express OX40 (FIG. 5B). Activated human T cells were labeled with anti-OX40 antibodies followed by soluble flag tagged-human OX40L. Binding of OX40L was detected with anti-FLAG-PE antibody. Percent inhibition was determined using the same formula, i.e., (100−(sample/maximum binding))*100.

| ADCC % Lysis at 10 µg/ml [1] [%] | percent inhibition of OX40L binding [2] [%] | binding result (human OX40 peptide 112B) | binding result (human OX40 peptide 112C) | binding result (human OX40 peptide 112A) | BMAX Geo Mean [3] | Kd [3] [µM] | IC50 [4] [mg/L] | IC50 [5] [mg/L] | IC50 [6] [mg/L] | Binder |
| --- | --- | --- | --- | --- | --- | --- | --- | --- | --- | --- |
| 37 | – | – | – | – | – | – | – | – | – | recombinant 112F32G1 antibody (112F32 variable regions in human IgG1) (antibody, V domains shown) VH: GVQLVESGGGLVQPGGSLRLSCAASGFTFSSYSMNWVRQAPGKGLEWVSYISSSSSTIYYADSVKGRFTISRDNAKNSLYLQMNSLRDEDTAVYYCARGVYHNGWSFFDYWGQGTLLTVSS VL: DIQMTQSPSSLSASVGNRVTITCRASQDISSWLAWYQQKPEKAPKSLIYAASSLQSGVPSRFSGSGSGTDFTLTISSLQPEDFATYYCQQYNSYPLTFGQGTRLEIKR |
| – | ~70 | no binding (tested: 10 µg/ml) | no binding (tested: 10 µg/ml) | no binding (tested: 10 µg/ml) | 104 geometric mean fluorescence | 0.013 | > 50 | 0.65 | – | 112F32 human anti-human OX40 monoclonal antibody (hybridoma ATCC No. PTA-7217) (antibody, V domains shown) VH: GVQLVESGGGLVQPGGSLRLSCAASGFTFSSYSMNWVRQAPGKGLEWVSYISSSSSTIYYADSVKGRFTISRDNAKNSLYLQMNSLRDEDTAVYYCARGVYHNGWSFFDYWGQGTLLTVSS VL: DIQMTQSPSSLSASVGNRVTITCRASQDISSWLAWYQQKPEKAPKSLIYAASSLQSGVPSRFSGSGSGTDFTLTISSLQPEDFATYYCQQYNSYPLTFGQGTRLEIKR |
| 55.6 | – | – | – | – | – | – | – | – | – | recombinant 112V8G1 antibody (112V8 variable regions in human IgG1) (antibody, V domains shown) VH: QITLKESGPTLVKPKQTLTLTCTFSGFSLSTSGMGVGWIRQPPGKALEWLAVIYWDDHQLYSPSLKSRLTITKDTSKNQVVLTMTNMDPVDTATYYCAHRRGAFQHWGQGTLVTVSS VL: not shown |
| – | 85 | no binding (tested: 10 µg/ml) | no binding (tested: 10 µg/ml) | no binding (tested: 10 µg/ml) | 181 geometric mean fluorescence | 0.036 | – | 0.051 | 0.62 | 112V8 human anti-human OX40 monoclonal antibody (hybridoma ATCC No. PTA-7219) (antibody, IgG4, V domains shown) VH: QITLKESGPTLVKPKQTLTLTCTFSGFSLSTSGMGVGWIRQPPGKALEWLAVIYWDDHQLYSPSLKSRLTITKDTSKNQVVLTMTNMDPVDTATYYCAHRRGAFQHWGQGTLVTVSS VL: not shown |
| 18 | – | – | – | – | – | – | – | – | – | recombinant 112V8 IgG4PE antibody (112V8G4PE) (antibody, V domains shown) VH: QITLKESGPTLVKPKQTLTLTCTFSGFSLSTSGMGVGWIRQPPGKALEWLAVIYWDDHQLYSPSLKSRLTITKDTSKNQVVLTMTNMDPVDTATYYCAHRRGAFQHWGQGTLVTVSS VL: not shown |
| 35 | 67 | – | – | – | 118 geometric mean fluorescence | 0.011 | – | 0.081 | 14.7 | 112Z5 human anti-human OX40 monoclonal antibody (hybridoma ATCC No. PTA-7216) (antibody, V domains shown) VH: VVSTQSTGGGLVQPGRSLRLSCAASGFTLDDYGMHWVRQAPGKGLEWVSGISWNSDSIGYVDSVKGRFTISRDNAKNSLYLQMNSLRVEDTALYYCVKDISGWYSFDYWGQGTLVTVSS VL: EIVLTQSPATLSLSPGERATLSCRASQSVSSYLAWYQQKPGQAPRLLIYDASNRATGIPARFSGSGSGTDFTLTISSLEPEDFAVYYCQQRSNWPITFGQGTRLEIK |
